Assays:
[1] = biological target: T1, Recombinant MICA*09 protein; assay: ELISA, coated MICA*09, OD 450 nm
T1 construct: Coated on ELISA plates
T1 sequence (Q29983 whole entry, species assumed, looked up): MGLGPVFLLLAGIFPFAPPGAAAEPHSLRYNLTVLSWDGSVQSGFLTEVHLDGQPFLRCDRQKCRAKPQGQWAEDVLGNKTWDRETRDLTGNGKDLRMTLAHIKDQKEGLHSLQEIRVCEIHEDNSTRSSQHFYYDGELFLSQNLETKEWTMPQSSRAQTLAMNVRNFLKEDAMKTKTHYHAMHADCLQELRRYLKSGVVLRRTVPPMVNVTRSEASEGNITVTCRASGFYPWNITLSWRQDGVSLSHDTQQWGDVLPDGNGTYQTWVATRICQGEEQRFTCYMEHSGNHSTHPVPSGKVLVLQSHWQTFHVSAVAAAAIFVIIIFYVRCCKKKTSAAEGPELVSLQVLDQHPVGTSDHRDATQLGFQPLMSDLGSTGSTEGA
Method: (§1) Recombinant MICA*01, MICA*02, MICA*04, MICA*08, MICA*09, and MICB proteins were diluted to 1 μg/ml in 50 mM sodium carbonate buffer, pH 9.6, and coated onto high binding 96-well microplates (Corning #9018), 100 ng in 100 ul per well. The following morning, coated ELISA plates were washed three times with TBS-Tween-20, pH 7.4 and then blocked in SuperBlock T20 Blocking Buffer (Pierce #37536). After blocking, ELISA plates were washed once with TBS-T and incubated with serially diluted anti-MICA antibody (0-1 μg/ml) for approximately two hours at room temperature. Following the incubation, ELISA plates were washed three times with TBS-T and then incubated with Goat anti-Mouse IgG (H+L)-HRP conjugate (ThermoFisher Scientific #626520) for 45 minutes at room temperature with shaking (˜400 rpm). After the incubation, ELISA plates were washed three times with TBS-T and incubated with Super Sensitive Liquid Substrate TMB (Sigma #T4444), 100 ul per well, until color development was sufficient. The reaction was stopped with 1N sulfuric acid, 100 ul per well. Optical density (OD) values were measured at 450 nm using a microplate reader.

[2] = biological target: T2, Recombinant MICA*02 protein; assay: ELISA, coated MICA*02, OD 450 nm
T2 construct: Coated on ELISA plates
T2 sequence (Q29983 whole entry, species assumed, looked up): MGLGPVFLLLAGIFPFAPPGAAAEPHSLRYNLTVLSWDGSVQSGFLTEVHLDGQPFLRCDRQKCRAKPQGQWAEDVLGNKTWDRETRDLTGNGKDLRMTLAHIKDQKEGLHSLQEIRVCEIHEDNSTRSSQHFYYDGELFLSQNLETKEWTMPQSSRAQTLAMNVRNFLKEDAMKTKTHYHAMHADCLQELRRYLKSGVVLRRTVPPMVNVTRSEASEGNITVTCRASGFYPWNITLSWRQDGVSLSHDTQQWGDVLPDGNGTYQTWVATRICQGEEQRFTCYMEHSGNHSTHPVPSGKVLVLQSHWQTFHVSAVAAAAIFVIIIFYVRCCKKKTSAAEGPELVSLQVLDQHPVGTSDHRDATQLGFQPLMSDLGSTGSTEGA
Method: as §1

[3] = biological target: T3, Recombinant MICB protein (UniProt Q29980 23-298, limits assumed); assay: ELISA, coated MICB, OD 450 nm
T3 construct: Coated on ELISA plates
T3 sequence (looked up): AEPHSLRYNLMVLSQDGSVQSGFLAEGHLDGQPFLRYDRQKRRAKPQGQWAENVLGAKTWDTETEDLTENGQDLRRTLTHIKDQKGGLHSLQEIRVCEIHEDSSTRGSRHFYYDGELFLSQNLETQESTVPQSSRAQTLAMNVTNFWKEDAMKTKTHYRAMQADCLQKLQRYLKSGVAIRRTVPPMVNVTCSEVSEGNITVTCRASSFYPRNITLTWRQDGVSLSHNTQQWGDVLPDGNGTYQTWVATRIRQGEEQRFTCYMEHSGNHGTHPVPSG
Method: as §1

[4] = biological target: T4, Recombinant MICA*01 protein (Homo sapiens (Human), UniProt Q29983 24-307); assay: ELISA, coated MICA*01, OD 450 nm
T4 construct: Coated on ELISA plates
T4 sequence: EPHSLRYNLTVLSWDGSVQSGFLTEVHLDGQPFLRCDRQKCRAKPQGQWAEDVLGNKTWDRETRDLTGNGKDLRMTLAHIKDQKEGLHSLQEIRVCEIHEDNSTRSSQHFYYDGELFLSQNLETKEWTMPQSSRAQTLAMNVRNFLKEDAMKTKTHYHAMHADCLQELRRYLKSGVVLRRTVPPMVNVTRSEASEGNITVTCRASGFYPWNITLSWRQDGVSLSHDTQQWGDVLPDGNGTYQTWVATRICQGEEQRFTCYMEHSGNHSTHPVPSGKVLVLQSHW
Method: as §1

[5] = biological target: T5, Recombinant MICA*08 protein; assay: ELISA, coated MICA*08, OD 450 nm
T5 construct: Coated on ELISA plates
T5 sequence (Q29983 whole entry, looked up): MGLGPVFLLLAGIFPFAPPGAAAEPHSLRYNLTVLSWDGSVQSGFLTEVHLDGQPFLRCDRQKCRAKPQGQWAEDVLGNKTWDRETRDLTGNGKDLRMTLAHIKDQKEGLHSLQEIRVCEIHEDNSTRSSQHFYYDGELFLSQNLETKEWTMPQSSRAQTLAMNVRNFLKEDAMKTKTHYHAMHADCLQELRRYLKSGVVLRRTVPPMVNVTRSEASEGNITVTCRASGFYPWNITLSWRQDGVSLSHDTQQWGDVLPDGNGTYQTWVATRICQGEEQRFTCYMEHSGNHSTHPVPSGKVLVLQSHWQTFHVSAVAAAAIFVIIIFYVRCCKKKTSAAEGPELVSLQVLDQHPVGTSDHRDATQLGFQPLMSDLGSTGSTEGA
Method: as §1

[6] = biological target: T6, Recombinant MICA*04 protein; assay: ELISA, coated MICA*04, OD 450 nm
T6 construct: Coated on ELISA plates
T6 sequence (Q29983 whole entry, looked up): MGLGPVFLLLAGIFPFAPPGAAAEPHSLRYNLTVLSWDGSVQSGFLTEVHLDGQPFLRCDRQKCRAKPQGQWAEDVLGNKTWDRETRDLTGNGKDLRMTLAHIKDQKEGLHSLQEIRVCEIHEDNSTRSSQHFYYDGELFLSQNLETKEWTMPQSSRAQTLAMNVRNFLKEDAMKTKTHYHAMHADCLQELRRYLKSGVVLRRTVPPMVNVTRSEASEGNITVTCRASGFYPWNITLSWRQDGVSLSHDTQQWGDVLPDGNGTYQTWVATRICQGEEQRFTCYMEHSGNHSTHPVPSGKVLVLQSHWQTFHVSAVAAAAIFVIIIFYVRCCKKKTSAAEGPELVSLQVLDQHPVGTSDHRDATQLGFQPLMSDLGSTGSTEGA
Method: as §1

Measured: EC50 (read off the curve)

B1: 16F10.C12 (antibody, V domains shown)
VH: EVQLQESGPGLVAPSQSLSITCTVSGFSLTAFGVNWVRQPPGKGLEWLGMIWGDGNTDYNSTLRSRLSISKDNSKSQVFLKLNSLQTDDTARYFCARETYYGNYAGLGYWGQGTLVTVSA
VL: QIVLTQSPAIMSASIGERVTMTCTASSSVSSNYLHWYQQKPRSSPKLWIYTTSNLASGVPTRFSGSGSGTSYSLTISSMEAEDAATYYCHQFHRSPFTFGSGTKLEIK
notes: the mAb was captured on anti-mouse IgG Fc biosensors and detected with goat anti-mouse IgG, so it is a mouse IgG; also called anti-MICA/B mAb; anti-MICA antibody
~0.03 µg/mL: [1] | [2] | [3] | [4]

B2: 3F9.E4 (antibody, V domains shown)
VH: EVQLQESGEGLVKPGGSLKLSCAASGFTFSNYAMSWVRQTPEKRLEWVAYISPGGDYIYYADTVKGRFTISRDNARNTLYLQMSSLKSEDTAMYYCTTDRRHYGSYAMDYWGQGISVTVSS
VL: DIVMTQAAPSVPVTPGESVSISCRSSKSLLHSNGNTYLYWFLQRPGQSPQLLIYRMSNLASGVPDRFSGSGSGTAFTLRISRVEAEDVGVYYCMQHLEYPFTFGSGTKLEIK
notes: as for B1
~0.03 µg/mL: all assays above
